# According to paper PMC9602545, “TcMYB8, a R3-MYB Transcription Factor, Positively Regulates Pyrethrin Biosynthesis in Tanacetum cinerariifolium”:
# Biological target: TcMYB8 (Tanacetum cinerariifolium (clone W99), UniProt A0A9Y1M041 1-217)
# Test: EMSA; labeled probe 10 uM; EMSA with 10 uM FAM probe; buffer, salt, pH and temperature not stated
# Conditions: protein: recombinant; tags: 6xHN, C-terminal (pET6HN-C vector); label: 5' 6-FAM; blunt
# TcMYB8, sequence (A0A9Y1M041 entry or part of it): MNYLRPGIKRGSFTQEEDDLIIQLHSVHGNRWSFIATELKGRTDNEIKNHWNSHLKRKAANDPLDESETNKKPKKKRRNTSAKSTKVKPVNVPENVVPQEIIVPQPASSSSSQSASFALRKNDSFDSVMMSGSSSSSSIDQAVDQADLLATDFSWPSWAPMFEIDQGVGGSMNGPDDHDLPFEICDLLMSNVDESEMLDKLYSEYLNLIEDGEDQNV
row,Binder,binding result
1,Probe_proGLIP (dsDNA) DNA 1: CCTGACAGTTGCTATTTAGTGCTGTCTACTTGTTTAGTTGTGGAGCAAATGACT DNA 2: AGTCATTTGCTCCACAACTAAACAAGTAGACAGCACTAAATAGCAACTGTCAGG,binds
2,Probe_proCHS (dsDNA) DNA 1: TTTGAAGGCAAGTGATGTAAAGTGCTAAGTGTTAAGTCAATGATTATAT DNA 2: ATATAATCATTGACTTAACACTTAGCACTTTACATCACTTGCCTTCAAA,binds
